Laboratory results published in FireProtDB (doi:10.1093/protein/14.11.891).

B1: Sialidase, P29768 (parent)
chain: MTVEKSVVFKAEGEHFTDQKGNTIVGSGSGGTTKYFRIPAMCTTSKGTIVVFADARHNTASDQSFIDTAAARSTDGGKTWNKKIAIYNDRVNSKLSRVMDPTCIVANIQGRETILVMVGKWNNNDKTWGAYRDKAPDTDWDLVLYKSTDDGVTFSKVETNIHDIVTKNGTISAMLGGVGSGLQLNDGKLVFPVQMVRTKNITTVLNTSFIYSTDGITWSLPSGYCEGFGSENNIIEFNASLVNNIRNSGLRRSFETKDFGKTWTEFPPMDKKVDNRNHGVQGSTITIPSGNKLVAAHSSAQNKNNDYTRSDISLYAHNLYSGEVKLIDDFYPKVGNASGAGYSCLSYRKNVDKETLYVVYEANGSIEFQDLSRHLPVIKSYN

Variants of: B1
Conditions: Salmonella typhimurium (strain LT2 / SGSC1412 / ATCC 700720), pH 7, CD, Potassium phosphate 10 mM, reversible: yes, structure 1DIL, whole UniProt chain shown; for ddG of mutation (higher = less stable) / denaturant midpoint (higher = more stable) / unfolding free energy: 25 °C, GdnHCl; for Tm / change of melting temperature, mutant - wild type (higher = more stable): Thermal

Row | Variant | ddG of mutation (higher = less stable) [kcal/mol] | denaturant midpoint (higher = more stable) [M] | unfolding free energy [kcal/mol] | Tm [°C] | change of melting temperature, mutant - wild type (higher = more stable) [°C]
1 | A53L | -0.81 | 1.64 | 5.05 | 62 | 5
2 | A69V | -0.62 | 1.42 | 4.86 | 60 | 3
